Measurements taken from IntAct's records for PubMed 20935634.

B1: Tumor necrosis factor receptor superfamily member 6 (Homo sapiens), P25445-1 (parent)
chain: MLGIWTLLPLVLTSVARLSSKSVNAQVTDINSKGLELRKTVTTVETQNLEGLHHDGQFCHKPCPPGERKARDCTVNGDEPDCVPCQEGKEYTDKAHFSSKCRRCRLCDEGHGLEVEINCTRTQNTKCRCKPNFFCNSTVCEHCDPCTKCEHGIIKECTLTSNTKCKEEGSRSNLGWLCLLLLPIPLIVWVKRKEVQKTCRKHRKENQGSHESPTLNPETVAINLSDVDLSKYITTIAGVMTLSQVKGFVRKNGVNEAKIDEIKNDNVQDTAEQKVQLLRNWHQLHGKKEAYDTLIKDLKKANLCTLAEKIQTIILKDITSDSENSNFRNEIQSLV
B2: FAS-associated death domain protein (Homo sapiens), Q13158 (parent)
chain: MDPFLVLLHSVSSSLSSSELTELKFLCLGRVGKRKLERVQSGLDLFSMLLEQNDLEPGHTELLRELLASLRRHDLLRRVDDFEAGAAAGAAPGEEDLCAAFNVICDNVGKDWRRLARQLKVSDTKIDSIEDRYPRNLTERVRESLRIWKNTEKENATVAHLVGALRSCQMNLVADLVQEVQQARDLQNRSGAMSPMSWNSDASTSEAS

Variants of: B1
Details: with fadd_human FADD

Q: How did the “effect of a mutation on the interaction” value turn out when MLGIWTLLPLVLTSVARLSSKSVNAQVTDINSKGLELRKTVTTVETQNLEGLHHDGQFCHKPCPPGERKARDCTVNGDEPDCVPCQEGKEYTDKAHFSSKCRRCRLCDEGHGLEVEINCTRTQNTKCRCKPNFFCNSTVCEHCDPCTKCEHGIIKECTLTSNTKCKEEGSRSNLGWLCLLLLPIPLIVWVKRKEVQKTCRKHRKENQGSHESPTLNPETVAINLSDVDLSKYITTIAGVMTLSQVKGFVRKNGVNEDKIDEIKNDNVQDTAEQKVQLLRNWHQLHGKKEAYDTLIKDLKKANLCTLAEKIQTIILKDITSDSENSNFRNEIQSLV [A257D] was run?
A: The value was “disrupting interaction”.

Q: With MLGIWTLLPLVLTSVARLSSKSVNAQVTDINSKGLELRKTVTTVETQNLEGLHHDGQFCHKPCPPGERKARDCTVNGDEPDCVPCQEGKEYTDKAHFSSKCRRCRLCDEGHGLEVEINCTRTQNTKCRCKPNFFCNSTVCEHCDPCTKCEHGIIKECTLTSNTKCKEEGSRSNLGWLCLLLLPIPLIVWVKRKEVQKTCRKHRKENQGSHESPTLNPETVAINLSDVDLSKYITTIAGVMTLSQVKGFVRKNGVNEAKIDEIKNDNVQDTAEQKVQLLRNWHQLHGDKEAYDTLIKDLKKANLCTLAEKIQTIILKDITSDSENSNFRNEIQSLV [K287D] as the variant, how does the “effect of a mutation on the interaction” value read?
A: Its value is “disrupting interaction”.

Q: How did the “effect of a mutation on the interaction” value turn out when MLGIWTLLPLVLTSVARLSSKSVNAQVTDINSKGLELRKTVTTVETQNLEGLHHDGQFCHKPCPPGERKARDCTVNGDEPDCVPCQEGKEYTDKAHFSSKCRRCRLCDEGHGLEVEINCTRTQNTKCRCKPNFFCNSTVCEHCDPCTKCEHGIIKECTLTSNTKCKEEGSRSNLGWLCLLLLPIPLIVWVKRKEVQKTCRKHRKENQGSHESPTLNPETVAINLSDVDLSKYITTIAGVMTLSQVKGFVRKNGVNEAKIYEIKNDNVQDTAEQKVQLLRNWHQLHGKKEAYDTLIKDLKKANLCTLAEKIQTIILKDITSDSENSNFRNEIQSLV [D260Y] was run?
A: The value was “disrupting interaction”.

Q: Which “effect of a mutation on the interaction” value does the source give for MLGIWTLLPLVLTSVARLSSKSVNAQVTDINSKGLELRKTVTTVETQNLEGLHHDGQFCHKPCPPGERKARDCTVNGDEPDCVPCQEGKEYTDKAHFSSKCRRCRLCDEGHGLEVEINCTRTQNTKCRCKPNFFCNSTVCEHCDPCTKCEHGIIKECTLTSNTKCKEEGSRSNLGWLCLLLLPIPLIVWVKRKEVQKTCRKHRKENQGSHESPTLNPETVAINLSDVDLSKYITTIAGVMTLSQVKGFVRKNGVNEAKIDKIKNDNVQDTAEQKVQLLRNWHQLHGKKEAYDTLIKDLKKANLCTLAEKIQTIILKDITSDSENSNFRNEIQSLV [E261K] here?
A: The value was “disrupting interaction”.

Q: How did the “effect of a mutation on the interaction” value turn out when MLGIWTLLPLVLTSVARLSSKSVNAQVTDINSKGLELRKTVTTVETQNLEGLHHDGQFCHKPCPPGERKARDCTVNGDEPDCVPCQEGKEYTDKAHFSSKCRRCRLCDEGHGLEVEINCTRTQNTKCRCKPNFFCNSTVCEHCDPCTKCEHGIIKECTLTSNTKCKEEGSRSNLGWLCLLLLPIPLIVWVKRKEVQKTCRKHRKENQGSHESPTLNPETVAINLSDVDLSKYITTIAGVMTLSQVKGFVRKNGVNEAKIDEIKNDNVQDTAEQKVQLLRNWHKLHGKKEAYDTLIKDLKKANLCTLAEKIQTIILKDITSDSENSNFRNEIQSLV [Q283K] was run?
A: The value was “disrupting interaction”.

Q: For MLGIWTLLPLVLTSVARLSSKSVNAQVTDINSKGLELRKTVTTVETQNLEGLHHDGQFCHKPCPPGERKARDCTVNGDEPDCVPCQEGKEYTDKAHFSSKCRRCRLCDEGHGLEVEINCTRTQNTKCRCKPNFFCNSTVCEHCDPCTKCEHGIIKECTLTSNTKCKEEGSRSNLGWLCLLLLPIPLIVWVKRKEVQKTCRKHRKENQGSHESPTLNPETVAINLSDVDLSKYITTIAGVMTLSQVKGFVRKNGVNEAKIDEIKNDNVQDTAKQKVQLLRNWHQLHGKKEAYDTLIKDLKKANLCTLAEKIQTIILKDITSDSENSNFRNEIQSLV [E272K], which “effect of a mutation on the interaction” value is on record?
A: Its value is “disrupting interaction”.

Q: Which “effect of a mutation on the interaction” value does the source give for MLGIWTLLPLVLTSVARLSSKSVNAQVTDINSKGLELRKTVTTVETQNLEGLHHDGQFCHKPCPPGERKARDCTVNGDEPDCVPCQEGKEYTDKAHFSSKCRRCRLCDEGHGLEVEINCTRTQNTKCRCKPNFFCNSTVCEHCDPCTKCEHGIIKECTLTSNTKCKEEGSRSNLGWLCLLLLPIPLIVWVKRKEVQKTCRKHRKENQGSHESPTLNPETVAINLSDVDLSKYITTIAGVMTLSQVKGFVRKNGVNEAKIDEIKNDNVQDKAEQKVQLLRNWHQLHGKKEAYDTLIKDLKKANLCTLAEKIQTIILKDITSDSENSNFRNEIQSLV [T270K] here?
A: The value was “disrupting interaction”.

Q: MLGIWTLLPLVLTSVARLSSKSVNAQVTDINSKGLELRKTVTTVETQNLEGLHHDGQFCHKPCPPGERKARDCTVNGDEPDCVPCQEGKEYTDKAHFSSKCRRCRLCDEGHGLEVEINCTRTQNTKCRCKPNFFCNSTVCEHCDPCTKCEHGIIKECTLTSNTKCKEEGSRSNLGWLCLLLLPIPLIVWVKRKEVQKTCRKHRKENQGSHESPTLNPETVAINLSDVDLSKYITTIAGVMTLSQVKGFVQKNGVNEAKIDEIKNDNVQDTAEQKVQLLRNWHQLHGKKEAYDTLIKDLKKANLCTLAEKIQTIILKDITSDSENSNFRNEIQSLV [R250Q] was tested. Which “effect of a mutation on the interaction” value did it give?
A: The value was “decreasing interaction strength”.

Q: MLGIWTLLPLVLTSVARLSSKSVNAQVTDINSKGLELRKTVTTVETQNLEGLHHDGQFCHKPCPPGERKARDCTVNGDEPDCVPCQEGKEYTDKAHFSSKCRRCRLCDEGHGLEVEINCTRTQNTKCRCKPNFFCNSTVCEHCDPCTKCEHGIIKECTLTSNTKCKEEGSRSNLGWLCLLLLPIPLIVWVKRKEVQKTCRKHRKENQGSHESPTLNPETVAINLSDVDLSKYITTIAGVMTLSQVKGFVEKNGVNEAKIDEIKNDNVQDTAEQKVQLLRNWHQLHGKKEAYDTLIKDLKKANLCTLAEKIQTIILKDITSDSENSNFRNEIQSLV [R250E] was tested. Which “effect of a mutation on the interaction” value did it give?
A: The value was “disrupting interaction strength”.

Variants of: B1
Details: with fadd_human FADD
Remark: another data set of the same source

Q: Which “effect of a mutation on the interaction” value does the source give for MLGIWTLLPLVLTSVARLSSKSVNAQVTDINSKGLELRKTVTTVETQNLEGLHHDGQFCHKPCPPGERKARDCTVNGDEPDCVPCQEGKEYTDKAHFSSKCRRCRLCDEGHGLEVEINCTRTQNTKCRCKPNFFCNSTVCEHCDPCTKCEHGIIKECTLTSNTKCKEEGSRSNLGWLCLLLLPIPLIVWVKRKEVQKTCRKHRKENQGSHESPTLNPETVAINLSDVDLSKYITTIAGVMTLSQVKGFVRKNGVNEAKIVEIKNDNVQDTAEQKVQLLRNWHQLHGKKEAYDTLIKDLKKANLCTLAEKIQTIILKDITSDSENSNFRNEIQSLV [D260V] here?
A: Its value is “disrupting interaction strength”.

Q: For MLGIWTLLPLVLTSVARLSSKSVNAQVTDINSKGLELRKTVTTVETQNLEGLHHDGQFCHKPCPPGERKARDCTVNGDEPDCVPCQEGKEYTDKAHFSSKCRRCRLCDEGHGLEVEINCTRTQNTKCRCKPNFFCNSTVCEHCDPCTKCEHGIIKECTLTSNTKCKEEGSRSNLGWLCLLLLPIPLIVWVKRKEVQKTCRKHRKENQGSHESPTLNPETVAINLSDVDLSKYITTIAGVMTLSQVKGFVRKNGVNEAKIYEIKNDNVQDTAEQKVQLLRNWHQLHGKKEAYDTLIKDLKKANLCTLAEKIQTIILKDITSDSENSNFRNEIQSLV [D260Y], which “effect of a mutation on the interaction” value is on record?
A: The value was “disrupting interaction strength”.

Q: With MLGIWTLLPLVLTSVARLSSKSVNAQVTDINSKGLELRKTVTTVETQNLEGLHHDGQFCHKPCPPGERKARDCTVNGDEPDCVPCQEGKEYTDKAHFSSKCRRCRLCDEGHGLEVEINCTRTQNTKCRCKPNFFCNSTVCEHCDPCTKCEHGIIKECTLTSNTKCKEEGSRSNLGWLCLLLLPIPLIVWVKRKEVQKTCRKHRKENQGSHESPTLNPETVAINLSDVDLSKYITTIAGVMTLSQVKGFVEKNGVNEAKIDEIKNDNVQDTAEQKVQLLRNWHQLHGKKEAYDTLIKDLKKANLCTLAEKIQTIILKDITSDSENSNFRNEIQSLV [R250E] as the variant, how does the “effect of a mutation on the interaction” value read?
A: Its value is “decreasing interaction”.

Variants of: B2
Details: with FAS

Q: With MDPFLVLLHSVSSSLSSSELTELKFLCLGRVGKRKLERVQSGLDLFSMLLEQNDLEPGHTELLRELLASLRRHDLLRRVDDFEAGAAAGAAPGEEDLCAAFNVICDNVGKDWRRLARQLKVSDTKIDSIEDRYPENLTERVRESLRIWKNTEKENATVAHLVGALRSCQMNLVADLVQEVQQARDLQNRSGAMSPMSWNSDASTSEAS [R135E] as the variant, how does the “effect of a mutation on the interaction” value read?
A: Its value is “disrupting interaction”.

Q: MDPFLVLLHSVSSSLSSSELTELKFLCLGRVGKRKLERVQSGLDLFSMLLEQNDLEPGHTELLRELLASLRRHDLLRRVDDFEAGAAAGAAPGEEDLCAAFNVICDNVGKDWRRLARQLKVSRTKIDSIEDRYPRNLTERVRESLRIWKNTEKENATVAHLVGALRSCQMNLVADLVQEVQQARDLQNRSGAMSPMSWNSDASTSEAS [D123R] was tested. Which “effect of a mutation on the interaction” value did it give?
A: The value was “disrupting interaction”.

Q: MDPFLVLLHSVSSSLSSSELTELKFLCLGRVGKRKLERVQSGLDLFSMLLEQNDLEPGHTELLRELLASLRRHDLLRRVDDFEAGAAAGAAPGEEDLCAAFNVICDNVGKDWRRLARQLKVSDTKIDSIEDRYPRNLTERVEESLRIWKNTEKENATVAHLVGALRSCQMNLVADLVQEVQQARDLQNRSGAMSPMSWNSDASTSEAS [R142E] was tested. Which “effect of a mutation on the interaction” value did it give?
A: Its value is “disrupting interaction”.

Q: How did the “effect of a mutation on the interaction” value turn out when MDPFLVLLHSVSSSLSSSELTELKFLCLGRVGKRKLERVQSGLDLFSMLLEQNDLEPGHTELLRELLASLRRHDLLRRVDDFEAGAAAGAAPGEEDLCAAFNVICDNVGKDWRRLAEQLKVSDTKIDSIEDRYPRNLTERVRESLRIWKNTEKENATVAHLVGALRSCQMNLVADLVQEVQQARDLQNRSGAMSPMSWNSDASTSEAS [R117E] was run?
A: Its value is “disrupting interaction”.

Variants of: B2
Details: with FAS
Remark: another data set of the same source

Q: With MDPFLVLLHSVSSSLSSSELTELKFLCLGRVGKRKLERVQSGLDLFSMLLEQNDLEPGHTELLRELLASLRRHDLLRRVDDFEAGAAAGAAPGEEDLCAAFNVICDNVGKDWRRLARQLKVSDTKIDSIEDRYPENLTERVRESLRIWKNTEKENATVAHLVGALRSCQMNLVADLVQEVQQARDLQNRSGAMSPMSWNSDASTSEAS [R135E] as the variant, how does the “effect of a mutation on the interaction” value read?
A: Its value is “decreasing interaction”.

Q: For MDPFLVLLHSVSSSLSSSELTELKFLCLGRVGKRKLERVQSGLDLFSMLLEQNDLEPGHTELLRELLASLRRHDLLRRVDDFEAGAAAGAAPGEEDLCAAFNVICDNVGKDWRRLARQLKVSRTKIDSIEDRYPRNLTERVRESLRIWKNTEKENATVAHLVGALRSCQMNLVADLVQEVQQARDLQNRSGAMSPMSWNSDASTSEAS [D123R], which “effect of a mutation on the interaction” value is on record?
A: Its value is “decreasing interaction”.

Q: For MDPFLVLLHSVSSSLSSSELTELKFLCLGRVGKRKLERVQSGLDLFSMLLEQNDLEPGHTELLRELLASLRRHDLLRRVDDFEAGAAAGAAPGEEDLCAAFNVICDNVGKDWRRLARQLKVSDTKIDSIEDRYPRNLTERVEESLRIWKNTEKENATVAHLVGALRSCQMNLVADLVQEVQQARDLQNRSGAMSPMSWNSDASTSEAS [R142E], which “effect of a mutation on the interaction” value is on record?
A: Its value is “decreasing interaction”.
